Publication PMC10804811 (Protein Science : A Publication of the Protein Society, 2024)

How the values were obtained:
[1] = target: EgCNNM4 extracellular domain (residues 25–153), wild type (Echinococcus granulosus); assay: AUC
AUC = target: the molecule itself; assay: AUC

Molecule	stoichiometry N [1]	stoichiometry N (AUC)
EgCNNM4 extracellular domain (residues 25–153), wild type (domain or fragment)	2	
HsCNNM4 extracellular domain A149S (Jalili syndrome mutation) (domain or fragment, human, UniProt Q6P4Q7 44-175, looked up) GTIVGMRLASCNKSCGTNPDGIIFVSEGSTVNLRLYGYSLGNISSNLISFTEVDDAETLHKSTSCLELTKDLVVQQLVNVSRGNTSGVLVVLTKFLRRSESMKLYSLCTRAQPDGPWLKWTDKDSLLFMVEE		2
HsCNNM4 extracellular domain (residues 44–175) R50A (domain or fragment, human, UniProt Q6P4Q7 44-175, looked up) GTIVGMALASCNKSCGTNPDGIIFVSEGSTVNLRLYGYSLGNISSNLISFTEVDDAETLHKSTSCLELTKDLVVQQLVNVSRGNTSGVLVVLTKFLRRSESMKLYALCTRAQPDGPWLKWTDKDSLLFMVEE		2
HsCNNM4 extracellular domain M145T (Jalili syndrome mutation) (domain or fragment, human, UniProt Q6P4Q7 44-175, looked up) GTIVGMRLASCNKSCGTNPDGIIFVSEGSTVNLRLYGYSLGNISSNLISFTEVDDAETLHKSTSCLELTKDLVVQQLVNVSRGNTSGVLVVLTKFLRRSESTKLYALCTRAQPDGPWLKWTDKDSLLFMVEE		2
HsCNNM4 extracellular domain N85D (Jalili syndrome mutation) (domain or fragment, human, UniProt Q6P4Q7 44-175, looked up) GTIVGMRLASCNKSCGTNPDGIIFVSEGSTVNLRLYGYSLGDISSNLISFTEVDDAETLHKSTSCLELTKDLVVQQLVNVSRGNTSGVLVVLTKFLRRSESMKLYALCTRAQPDGPWLKWTDKDSLLFMVEE		2
HsCNNM4 extracellular domain E95Q (Jalili syndrome mutation) (domain or fragment, human, UniProt Q6P4Q7 44-175, looked up) GTIVGMRLASCNKSCGTNPDGIIFVSEGSTVNLRLYGYSLGNISSNLISFTQVDDAETLHKSTSCLELTKDLVVQQLVNVSRGNTSGVLVVLTKFLRRSESMKLYALCTRAQPDGPWLKWTDKDSLLFMVEE		2
HsCNNM4 extracellular domain (residues 44–175), wild type (domain or fragment, human, UniProt Q6P4Q7 44-175, looked up) GTIVGMRLASCNKSCGTNPDGIIFVSEGSTVNLRLYGYSLGNISSNLISFTEVDDAETLHKSTSCLELTKDLVVQQLVNVSRGNTSGVLVVLTKFLRRSESMKLYALCTRAQPDGPWLKWTDKDSLLFMVEE		2
